Source: patent publication US20200347101A1 (PAI LIFE SCIENCES, published 2020)
Several values for one entry are separate records, joined by “and”; a condition that tells them apart may be missing. Equal values may be shown once. Read-outs that look alike come from different tables or passages of the source.

Columns and labels:
[1] = target: recombinant human DSG2 (human) (UniProt Q14126); test: SPR; summary table, Affinity to DSG2 (nM)
[2] = target: recombinant human DSG2 (human) (UniProt Q14126); test: SPR (Biacore 3000), JO protein immobilized, rhDSG2 flowed
[3] = target: recombinant human DSG2 (human) (UniProt Q14126); test: SPR (Biacore 3000), hDSG2 immobilized, JO protein flowed
[4] = target: recombinant human DSG2 (human) (UniProt Q14126); test: SPR, comparison of the two formats
[5] = target: DSG2 on cells (HeLa cells in the viral inhibition assay; HT29 cells in the shedding assay) (UniProt Q14126); test: cell-based or functional assay
[6] = target: DSG2 on cells (HeLa cells in the viral inhibition assay; HT29 cells in the shedding assay) (UniProt Q14126); test: cell-based or functional assay; remark: listed apart in the source
[7] = target: DSG2 on cells (HeLa cells in the viral inhibition assay; HT29 cells in the shedding assay) (UniProt Q14126)
[8] = target: T1, DSG2 on cells (HeLa cells in the viral inhibition assay; HT29 cells in the shedding assay) (UniProt Q14126 50-1118); test: cell-based or functional assay
T1 sequence: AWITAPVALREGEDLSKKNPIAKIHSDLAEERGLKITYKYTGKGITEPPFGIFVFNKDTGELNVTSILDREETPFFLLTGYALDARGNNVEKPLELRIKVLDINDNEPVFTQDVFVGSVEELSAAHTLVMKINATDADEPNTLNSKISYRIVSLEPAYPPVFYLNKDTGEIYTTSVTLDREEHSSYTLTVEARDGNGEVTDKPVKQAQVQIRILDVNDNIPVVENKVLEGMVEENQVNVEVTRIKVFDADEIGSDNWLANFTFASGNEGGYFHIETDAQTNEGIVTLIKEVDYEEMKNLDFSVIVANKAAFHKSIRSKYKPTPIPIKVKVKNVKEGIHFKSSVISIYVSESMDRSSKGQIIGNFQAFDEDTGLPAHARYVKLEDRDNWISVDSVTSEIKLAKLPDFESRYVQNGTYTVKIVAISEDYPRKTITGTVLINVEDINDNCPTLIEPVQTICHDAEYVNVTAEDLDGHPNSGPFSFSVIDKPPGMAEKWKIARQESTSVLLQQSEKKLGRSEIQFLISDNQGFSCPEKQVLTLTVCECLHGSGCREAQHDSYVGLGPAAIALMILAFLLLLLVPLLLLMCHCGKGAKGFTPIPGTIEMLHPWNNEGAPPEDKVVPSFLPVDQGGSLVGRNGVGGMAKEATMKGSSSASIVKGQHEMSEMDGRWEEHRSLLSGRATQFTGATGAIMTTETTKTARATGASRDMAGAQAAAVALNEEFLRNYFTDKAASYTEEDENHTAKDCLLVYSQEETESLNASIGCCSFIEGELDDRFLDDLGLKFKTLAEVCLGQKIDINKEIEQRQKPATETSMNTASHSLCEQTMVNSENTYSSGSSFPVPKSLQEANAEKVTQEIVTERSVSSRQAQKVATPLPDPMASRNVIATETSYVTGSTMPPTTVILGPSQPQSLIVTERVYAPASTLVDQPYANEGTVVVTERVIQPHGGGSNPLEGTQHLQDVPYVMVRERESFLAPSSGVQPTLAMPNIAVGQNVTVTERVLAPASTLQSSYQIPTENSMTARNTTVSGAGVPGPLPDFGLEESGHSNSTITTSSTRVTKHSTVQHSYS

recombinant human DSG2 [9] = target: T2, recombinant human DSG2 (human, UniProt Q14126 50-609); test: SPR; summary table, Affinity to DSG2 (nM)
T2 construct: also called hDSG2; rhDSG2
T2 sequence: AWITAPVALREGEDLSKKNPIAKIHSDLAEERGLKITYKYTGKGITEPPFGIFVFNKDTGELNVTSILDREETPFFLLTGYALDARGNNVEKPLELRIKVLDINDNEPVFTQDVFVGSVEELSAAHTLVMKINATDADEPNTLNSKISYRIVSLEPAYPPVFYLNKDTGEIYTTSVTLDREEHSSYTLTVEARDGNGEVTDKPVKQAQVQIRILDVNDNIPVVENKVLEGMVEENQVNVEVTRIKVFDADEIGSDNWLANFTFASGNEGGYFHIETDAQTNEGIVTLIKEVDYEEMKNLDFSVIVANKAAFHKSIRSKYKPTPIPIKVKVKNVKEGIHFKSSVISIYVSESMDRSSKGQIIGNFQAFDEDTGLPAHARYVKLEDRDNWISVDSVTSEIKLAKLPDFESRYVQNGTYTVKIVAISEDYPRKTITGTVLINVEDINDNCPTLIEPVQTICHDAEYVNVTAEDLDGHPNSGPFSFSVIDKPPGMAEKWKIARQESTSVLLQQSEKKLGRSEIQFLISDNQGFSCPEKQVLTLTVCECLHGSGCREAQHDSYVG

[10] = target: T1, DSG2 on cells (HeLa cells in the viral …); test: cell-based or functional assay; remark: listed apart in the source
[11] = target: T1, DSG2 on cells (HeLa cells in the viral …); test: cell-based or functional assay; remark: listed apart in the source
recombinant human DSG2 [12] = target: T2, recombinant human DSG2; test: SPR (Biacore 3000), JO protein immobilized, rhDSG2 flowed
recombinant human DSG2 [13] = target: T2, recombinant human DSG2; test: SPR, comparison of the two formats
[14] = target: T1, DSG2 on cells (HeLa cells in the viral …); test: cell-based or functional assay; remark: listed apart in the source
[15] = target: T1, DSG2 on cells (HeLa cells in the viral …); test: cell-based or functional assay; remark: listed apart in the source
recombinant human DSG2 [16] = target: T2, recombinant human DSG2; test: SPR (Biacore 3000), hDSG2 immobilized, JO protein flowed
[17] = target: T1, DSG2 on cells (HeLa cells in the viral …); test: cell-based or functional assay; remark: listed apart in the source

## JO-4 (designed binder; other documents disagree on this pair)
[1]
  Kd: 0.58 nM
[2]
  Kd: 0.58 nM
  koff: 0.00046 s⁻¹
  kon: 790000 M⁻¹ s⁻¹
[3]
  Kd: 11.4 nM
  koff: 0.00264 s⁻¹
[4]
  fold faster on-rate, JO-4 immobilized against DSG2 immobilized: 3.4 fold
  fold improvement in affinity, JO-4 immobilized against DSG2 immobilized: 20 fold
  fold more stable dissociation rate, JO-4 immobilized against DSG2 immobilized: 5.7 fold

## JO-4 (designed binder)
[5]
  DSG2 shedding from HT29 cells relative to PBS treated monolayers (ELISA of the medium): 1.44 fold
  VIA IC50: 0.067 µg/mL
[6]
  VIA IC50: 0.065 µg/mL
[7]
  IC50 (read off the curve); VIA, oxidized (non-reduced) JO4: 0.05 µg/mL
  IC50 (read off the curve); VIA, reduced (DTT) JO4: 0.05 µg/mL

B1: GB7/JOC-x (designed binder)
chain: RGSHHHHHHGSKNSIALKNNTLWTGPKPEANSIIEYGKQNPDSKLTLILVKNGGIVNGYVTLMGASDYVNTLFKNKNVSINVELYFDATGHILPDSSSLKTDLELKYKQTADFSARGFMPSTTAYPFDLPNAGTHNENYIFGQSYYKASDGALFPLEVTVMLNKRLPDSRTSYVMTFLWSLNAGLAPETTQATLITSPFTFSYIREDDGGGSGGGSGGGSC
notes: also called GB7 (ΔDD)
[8]
  VIA IC50: 0.029 µg/mL
Recombinant human DSG2 [9]
  Kd: 1.2 nM
[10]
  IC50 (read off the curve); VIA, oxidized (non-reduced) GB7 (JOC-x): ~0.02 µg/mL
  IC50 (read off the curve); VIA, reduced (DTT) GB7 (JOC-x): ~0.2 µg/mL
[11]
  VIA IC50: 0.032 µg/mL
Recombinant human DSG2 [12]
  Kd: 1.19 nM
  koff: 0.00075 s⁻¹
  kon: 630000 M⁻¹ s⁻¹
Recombinant human DSG2 [13]
  fold reduction in affinity, GB7 immobilized against DSG2 immobilized: 2 fold
[14]
  IC50 (read off the curve); VIA, unconjugated mixture JOC-x + poly(I:C): ~0.2 µg/mL
[15]
  DSG2 shedding from HT29 cells relative to PBS treated monolayers (ELISA of the medium): 1.39 fold
  VIA IC50: 0.032 µg/mL and 0.055 µg/mL
  VIA, DTT-reduced against oxidized protein: decrease in viral inhibition: 5 fold
  loss of viral inhibition of unconjugated JOC-x in the presence of poly(I:C) (VIA): ~3.9 fold
Recombinant human DSG2 [16]
  Kd: 0.58 nM
  koff: 0.00083 s⁻¹

B2: JOC-poly(I:C) conjugate (designed binder)
chain: B1 chain
modifications: poly(I:C) linked through the crosslinker SMPB to the free cysteine on JOC-x
[15]
  IC50 of the conjugate relative to the unconjugated protein (VIA): ~6.3 fold
  VIA IC50: 0.203 µg/mL

B3: JOC-DOTA (Eu) (designed binder)
chain: B1 chain
modifications: maleimido-mono-amide-DOTA conjugated to reduced JOC-x (free cysteine), complexed with europium ions
[15]
  VIA IC50: 0.254 µg/mL

B4: JOC-DOTA (designed binder)
chain: B1 chain
modifications: maleimido-mono-amide-DOTA conjugated to reduced JOC-x (free cysteine)
[15]
  VIA IC50: 0.131 µg/mL

B5: GB3 (designed binder)
chain: MRGSHHHHHHGSKVSALKEKVSALKEKVSALKEKVSALKEKVSALKEGSGGGSGGGSGGGSNSIALKNNTLWTGPKPEANSIIEYGKQNPDSKLTLILVKNGGIVNGYVTLMGASDYVNTLFKNKNVSINVELYFDATGHILPDSSSLKTDLELKYKQTADFSARGFMPSTTAYPFDLPNAGTHNENYIFGQSYYKASDGALFPLEVTVMLNKRLPDSRTSYVMTFLWSLNAGLAPETTQATLITSPFTFSYIREDDGGGSGGGSGGGSC
[8]
  VIA IC50: 0.028 µg/mL
Recombinant human DSG2 [9]
  Kd: 0.11 nM
[11]
  VIA IC50: 0.029 µg/mL
[15]
  DSG2 shedding from HT29 cells relative to PBS treated monolayers (ELISA of the medium): 1.52 fold
  VIA, DTT-reduced against oxidized protein: reduction in viral inhibition: ~2 fold
[17]
  IC50 (read off the curve); VIA, oxidized (non-reduced) GB3: ~0.03 µg/mL
  IC50 (read off the curve); VIA, reduced (DTT) GB3: ~0.06 µg/mL
Recombinant human DSG2 [16]
  Kd: 0.11 nM
  koff: 0.0005 s⁻¹

B6: GB5 (designed binder)
chain: MRGSHHHHHHGSKNSIALKNNTLWTGPKPEANSIIEYGKQNPDSKLTLILVKNGGIVNGYVTLMGASDYVNTLFKNKNVSINVELYFDATGHILPDSSSLKTDLELKYKQTADFSARGFMPSTTAYPFVLPNAGTHNENYIFGQSYYKASDGALFPLEVTVMLNKRLPDSRTSYVMTFLWSLNAGLAPETTQATLITSPFTFSYIREDD
[11]
  VIA IC50: 0.241 µg/mL
[15]
  lower viral inhibition relative to JO-1 (VIA): 5 fold

B7: GB10 (designed binder)
chain: MRGSHHHHHHCGSKVSALKEKVSALKEKVSALKEKVSALKEKVSALKEGSGGGSGGGSGGGSNSIALKNNTLWTGPKPEANSIIEYGKQNPDSKLTLILVKNGGIVNGYVTLMGASDYVNTLFKNKNVSINVELYFDATGHILPDSSSLKTDLELKYKQTADFSARGFMPSTTAYPFVLPNAGTHNENYIFGQSYYKASDGALFPLEVTVMLNKRLPDSRTSYVMTFLWSLNAGLAPETTQATLITSPFTFSYIREDD
[11]
  VIA IC50: 0.026 µg/mL
